Positions of bridges follow the written chain, without caps; N, C: chain ends. No end group written: not given here.
How the values were obtained:
Assay in all cases: ELISA
[1] = molecular target: T1, CD9 EC2 domain (extracellular-2 domain of tetraspanin CD9, residues 113-192) (UniProt P21926 113-192)
T1 sequence: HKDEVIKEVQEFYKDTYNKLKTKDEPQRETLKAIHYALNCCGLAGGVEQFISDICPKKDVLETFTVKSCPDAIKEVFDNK

[2] = molecular target: T2, CD151 EC2 domain (extracellular-2 domain of tetraspanin CD151, residues 113-221) (UniProt P48509 113-221)
T2 sequence: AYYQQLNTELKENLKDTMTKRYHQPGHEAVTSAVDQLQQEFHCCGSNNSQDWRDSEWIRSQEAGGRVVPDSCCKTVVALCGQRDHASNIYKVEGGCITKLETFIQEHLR

[3] = molecular target: T3, CD81 EC2 domain (extracellular-2 domain of tetraspanin CD81, residues 113-201) (UniProt P60033 113-201)
T3 sequence: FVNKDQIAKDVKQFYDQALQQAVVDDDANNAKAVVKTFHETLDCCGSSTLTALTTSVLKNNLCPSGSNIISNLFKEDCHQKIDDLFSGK

Measured: binding result

CRLAGIVQPNDGQSHVGSDNHYSASTTMC (disulfide 1-29; also: GST fusion protein) [disulfide-linked cyclic site 2 peptide of integrin β3 (GST fusion protein)]
binds: all assays above
